# Results published in patent US20050008615A1.
# Molecular target: human IL-18 binding protein (human) (UniProt O95998)
# Assay: IGEN electrochemiluminescence immunoassay of the IL-18:IL-18BP complex; 125 ng/ml of each
# Sequence of native human IL-18 (SEQ ID NO:1) (Q14116 37-193): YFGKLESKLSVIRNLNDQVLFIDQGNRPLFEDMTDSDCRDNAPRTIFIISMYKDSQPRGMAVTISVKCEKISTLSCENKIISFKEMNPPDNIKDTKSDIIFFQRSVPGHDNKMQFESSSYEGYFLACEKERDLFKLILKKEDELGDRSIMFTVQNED
row,ECL units [ECL units],Substance
1,154000,"C144 20K PEG (human IL-18 L144C substitution mutant pegylated at C144 with 20K PEG, Table 7) (ligand)"
2,377000,"C157 non-PEG (human IL-18 substitution mutant with D157C, Table 7) (ligand)"
3,63500,"C157 20K PEG (human IL-18 D157C substitution mutant pegylated at C157 with 20K PEG, Table 7) (ligand)"
4,746000,human IL-18 C38S (SEQ ID NO:4) (from UniProt Q14116 37-193) (ligand)
5,561000,"C144 non-PEG (human IL-18 substitution mutant with L144C, Table 7) (ligand)"
6,49100,human IL-18 C38S (SEQ ID NO:4) monopegylated at C68 with 20K PEG (from UniProt Q14116 37-193) (ligand)

# Molecular target: human IL-18 binding protein (human) (UniProt O95998)
# Assay: SPR (BIAcore)
row,Substance,Kd [nM]
1,"human IL-18 C38S, C68D, D157C (SEQ ID NO:8) monopegylated at C157 with 20K PEG (from UniProt Q14116 37-192) (ligand)",5.53
2,"human IL-18 C38S, C68D, D157C (SEQ ID NO:8) monopegylated at C157 with 40K PEG (from UniProt Q14116 37-192) (ligand)",23.6
3,"human IL-18 C38S, C68S, L144C (SEQ ID NO:9) monopegylated at C144 with 20K PEG (from UniProt Q14116 37-193) (ligand)",1.56
4,"human IL-18 C38S, C68S, L144C (SEQ ID NO:9) monopegylated at C144 with 30K PEG (from UniProt Q14116 37-193) (ligand)",1.51
5,"human IL-18 C38S, C68D, D157C (SEQ ID NO:8) monopegylated at C157 with 30K PEG (from UniProt Q14116 37-192) (ligand)",4.91
6,"human IL-18 C38S, C68D, L144C (SEQ ID NO:7) monopegylated at C144 with 40K PEG (from UniProt Q14116 37-193) (ligand)",4.71

# The next lines start with the values.
row,Kd [nM],Substance
1,1.51,"human IL-18 C38S, C68D, L144C (SEQ ID NO:7) monopegylated at C144 with 30K PEG (from UniProt Q14116 37-193) (ligand)"
2,0.134,"human IL-18 C38S, C68D, D157C (SEQ ID NO:8) (from UniProt Q14116 37-192) (ligand)"
3,0.156,"human IL-18 C38S, C68S, L144C (SEQ ID NO:9) (from UniProt Q14116 37-193) (ligand)"
4,1.27,"human IL-18 C38S, C68S, D157C (SEQ ID NO:10) monopegylated at C157 with 20K PEG (from UniProt Q14116 37-192) (ligand)"
5,0.101,"human IL-18 C38S, C68D, L144C (SEQ ID NO:7) (from UniProt Q14116 37-193) (ligand)"
6,1.29,"human IL-18 C38S, C68S, D157C (SEQ ID NO:10) monopegylated at C157 with 30K PEG (from UniProt Q14116 37-192) (ligand)"
7,0.163,"human IL-18 C38S, C68S, D157C (SEQ ID NO:10) (from UniProt Q14116 37-192) (ligand)"
8,0.135,native human IL-18 (SEQ ID NO:1) (from UniProt Q14116 37-193) (ligand)
9,1.16,"human IL-18 C38S, C68D, L144C (SEQ ID NO:7) monopegylated at C144 with 20K PEG (from UniProt Q14116 37-193) (ligand)"

# Molecular target: human IL-18 binding protein (human) (UniProt O95998)
# Assay: IGEN electrochemiluminescence immunoassay of the IL-18:IL-18BP complex (ruthenium 16D10 anti-IL-18 mAb, biotinylated mAb 36 anti-IL-18BP); 125 ng/ml of each
row,ECL units [ECL units],Substance
1,1.1e+06,native human IL-18 (SEQ ID NO:1) (from UniProt Q14116 37-193) (ligand)
